Experimental data: patent CN105622755A (1ST AFFILIATED HOSPITAL OF 3RD MILITARY MEDICAL UNIV PLA, dated 2016)

Experiments:
[1] = molecular target: T1, 前列腺特异性膜抗原 (PSMA) on LNCaP cells (UniProt Q04609 1-750, limits assumed); assay: cell ELISA (OD450) and immunofluorescence on fixed LNCaP cells (PSMA+) against MKN45 cells (PSMA-), anti-M13 detection
T1 construct: whole, on cells; Endogenous PSMA on fixed LNCaP cells; also called prostate specific membrane antigen; LNCaP细胞(表达PSMA)

重组表达的PSMA胞外区蛋白 = molecular target: T2, 重组表达的PSMA胞外区蛋白 (UniProt Q04609 44-750, limits assumed); assay: indirect phage-ELISA, PSMA extracellular region coated at 5 μg/mL, HRP-anti-M13 detection
T2 construct: extracellular domain; also called 前列腺特异性膜抗原膜外区; PSMA抗原; not shown: His tag (purified with HisTrap FF Crude, detected with anti-His antibody)
T2 sequence (Q04609 44-750 limits assumed): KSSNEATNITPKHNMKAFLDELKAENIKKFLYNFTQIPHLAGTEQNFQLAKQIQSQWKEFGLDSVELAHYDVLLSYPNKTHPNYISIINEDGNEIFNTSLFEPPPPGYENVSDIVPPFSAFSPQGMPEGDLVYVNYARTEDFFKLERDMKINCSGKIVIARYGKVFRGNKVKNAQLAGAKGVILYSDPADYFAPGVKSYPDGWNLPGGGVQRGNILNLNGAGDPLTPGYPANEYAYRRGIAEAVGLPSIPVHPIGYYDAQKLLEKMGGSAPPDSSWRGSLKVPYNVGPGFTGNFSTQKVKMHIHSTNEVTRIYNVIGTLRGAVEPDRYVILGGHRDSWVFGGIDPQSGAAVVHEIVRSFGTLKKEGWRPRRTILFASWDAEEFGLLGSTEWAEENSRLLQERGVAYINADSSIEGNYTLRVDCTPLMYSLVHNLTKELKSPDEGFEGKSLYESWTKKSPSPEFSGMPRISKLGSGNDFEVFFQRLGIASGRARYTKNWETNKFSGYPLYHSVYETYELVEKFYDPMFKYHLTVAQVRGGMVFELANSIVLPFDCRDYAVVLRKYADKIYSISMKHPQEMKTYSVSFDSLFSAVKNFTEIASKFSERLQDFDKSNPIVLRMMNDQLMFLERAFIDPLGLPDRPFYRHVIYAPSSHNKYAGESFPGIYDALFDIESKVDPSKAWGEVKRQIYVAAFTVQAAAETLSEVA

T1 sequence (Q04609 whole entry): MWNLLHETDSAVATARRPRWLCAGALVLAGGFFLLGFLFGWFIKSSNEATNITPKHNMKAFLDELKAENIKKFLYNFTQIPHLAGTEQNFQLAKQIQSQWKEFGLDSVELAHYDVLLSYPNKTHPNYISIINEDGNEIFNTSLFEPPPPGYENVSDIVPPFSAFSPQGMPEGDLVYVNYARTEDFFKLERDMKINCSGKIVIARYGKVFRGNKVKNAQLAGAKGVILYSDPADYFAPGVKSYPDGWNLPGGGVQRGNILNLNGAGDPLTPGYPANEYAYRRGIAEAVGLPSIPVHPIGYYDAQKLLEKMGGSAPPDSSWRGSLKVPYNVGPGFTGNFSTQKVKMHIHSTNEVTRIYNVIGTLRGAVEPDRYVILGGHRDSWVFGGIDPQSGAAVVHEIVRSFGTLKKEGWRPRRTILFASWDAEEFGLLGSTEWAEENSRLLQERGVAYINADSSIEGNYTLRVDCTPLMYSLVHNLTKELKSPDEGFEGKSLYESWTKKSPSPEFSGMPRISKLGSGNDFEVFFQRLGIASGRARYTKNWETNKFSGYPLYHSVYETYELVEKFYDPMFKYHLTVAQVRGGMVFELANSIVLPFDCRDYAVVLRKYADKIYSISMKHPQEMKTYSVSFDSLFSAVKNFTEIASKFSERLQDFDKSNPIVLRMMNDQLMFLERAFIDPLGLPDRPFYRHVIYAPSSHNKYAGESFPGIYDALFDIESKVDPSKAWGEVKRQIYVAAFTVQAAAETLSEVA

B1: 抗前列腺特异性膜抗原单域重链抗体噬菌体阳性克隆 (VHH)
VHH: QVQLVESGGGLVQAGDSLRLSCAASRRTFSFMAWYRQAPGKQRELVAAITSGGRNTNYADSVKGRFTISRDNAKNTMYLQMNSLKPEDTAVYYCNAAARWNNYWGQGTPVTVSS
notes: The phage coat protein fusion and any linker are not described; Selected from a naive camelid VHH phage display library; also called 针对前列腺特异性膜抗原的单域重链抗体阳性克隆; 展示本发明所述纳米抗体的噬菌体克隆
- binding result [1]: binds
- binding result (重组表达的PSMA胞外区蛋白): binds
